Test results reported in US20230092787A1 (UNIVERSITY OF VIRGINIA PATENT FOUNDATION, published 2023).

Experiments:
[1] = biological target: T1, integrin alphav beta3 (αvβ3), human, on tumor cell lines (human, UniProt P06756 31-1048; P05106 27-788); assay: flow cytometry, PE-LM609 on SU-DIPG-IV cells
T1 construct: whole, on cells; Endogenous heterodimer on human DIPG and GBM tumor cell lines; also called integrin αvβ3; ITGAV/ITGB3
Protocol: (§1) Human T cell analysis of ex vivo expanded CAR T cells, and T cells isolated from mouse blood, brain, and spleen was performed using antibodies against CD3 (HIT3a), CD4 (OKT4), CD8 (SK1), CD45RO (UCH1.1), CD45RA (H100), CCR7 (G043H7), CD127 (A019D5), PD-1 (EH12.2H7), LAG-3 (11C3C65), TIM-3 (F38-2E2), CD45 (2D1), and TCF-1 (7F11A10) (from BioLegend, San Diego, Calif., United States of America). Expression of integrin αᵥβ₃ CAR was detected using biotinylated protein L (Thermo Fisher Scientific, Waltham, Mass., United States of America) followed by streptavidin-conjugated PE (BioLegend, San Diego, Calif., United States of America). […] Sample data was acquired on a NovoCyte 3005 Flow Cytometer (ACEA Biosciences Inc., San Diego, Calif., United States of America) and analyzed using data analysis software sold under the tradename FLOWJO™ v10 (FlowJo LLC, Ashland, Oreg., United States of America).
(§2) Tumor cell line expression of integrin αᵥβ₃ was measured by flow cytometry. More particularly, cell surface expression of integrin αᵥβ₃ was evaluated by flow cytometry staining with phycoerythrin-conjugated anti-integrin αᵥβ₃ monoclonal antibody (clone LM609) on diffuse intrinsic pontine glioma (DIPG), neuroblastoma, glioblastoma (GBM), triple-negative breast, bladder, rhabdomyosarcoma (RMS), lung, cervical squamous cell carcinoma, and melanoma tumor cell lines. […]

[2] = biological target: T1, integrin alphav beta3 (αvβ3), human, on …; assay: flow cytometry, PE-LM609 on SU-DIPG-27 cells
Protocol: as §1, §2

[3] = biological target: T1, integrin alphav beta3 (αvβ3), human, on …; assay: flow cytometry, PE-LM609 on SU-DIPG-36 cells
Protocol: as §1, §2

[4] = biological target: T1, integrin alphav beta3 (αvβ3), human, on …; assay: flow cytometry, PE-LM609 on GBM U87 cells
Protocol: as §1, §2

[5] = biological target: T1, integrin alphav beta3 (αvβ3), human, on …; assay: flow cytometry, PE-LM609 on SU-DIPG-XIII cells
Protocol: as §1, §2

[6] = biological target: T1, integrin alphav beta3 (αvβ3), human, on …; assay: flow cytometry, PE-LM609 on SU-DIPG-21 cells
Protocol: as §1, §2

[7] = biological target: T1, integrin alphav beta3 (αvβ3), human, on …; assay: flow cytometry, PE-LM609 on SU-DIPG-17 cells
Protocol: as §1, §2

[8] = biological target: T1, integrin alphav beta3 (αvβ3), human, on …; assay: flow cytometry, PE-LM609 on GBM U251 cells
Protocol: as §1, §2

T1 sequence (P06756 31-1048, chain 1 of 2): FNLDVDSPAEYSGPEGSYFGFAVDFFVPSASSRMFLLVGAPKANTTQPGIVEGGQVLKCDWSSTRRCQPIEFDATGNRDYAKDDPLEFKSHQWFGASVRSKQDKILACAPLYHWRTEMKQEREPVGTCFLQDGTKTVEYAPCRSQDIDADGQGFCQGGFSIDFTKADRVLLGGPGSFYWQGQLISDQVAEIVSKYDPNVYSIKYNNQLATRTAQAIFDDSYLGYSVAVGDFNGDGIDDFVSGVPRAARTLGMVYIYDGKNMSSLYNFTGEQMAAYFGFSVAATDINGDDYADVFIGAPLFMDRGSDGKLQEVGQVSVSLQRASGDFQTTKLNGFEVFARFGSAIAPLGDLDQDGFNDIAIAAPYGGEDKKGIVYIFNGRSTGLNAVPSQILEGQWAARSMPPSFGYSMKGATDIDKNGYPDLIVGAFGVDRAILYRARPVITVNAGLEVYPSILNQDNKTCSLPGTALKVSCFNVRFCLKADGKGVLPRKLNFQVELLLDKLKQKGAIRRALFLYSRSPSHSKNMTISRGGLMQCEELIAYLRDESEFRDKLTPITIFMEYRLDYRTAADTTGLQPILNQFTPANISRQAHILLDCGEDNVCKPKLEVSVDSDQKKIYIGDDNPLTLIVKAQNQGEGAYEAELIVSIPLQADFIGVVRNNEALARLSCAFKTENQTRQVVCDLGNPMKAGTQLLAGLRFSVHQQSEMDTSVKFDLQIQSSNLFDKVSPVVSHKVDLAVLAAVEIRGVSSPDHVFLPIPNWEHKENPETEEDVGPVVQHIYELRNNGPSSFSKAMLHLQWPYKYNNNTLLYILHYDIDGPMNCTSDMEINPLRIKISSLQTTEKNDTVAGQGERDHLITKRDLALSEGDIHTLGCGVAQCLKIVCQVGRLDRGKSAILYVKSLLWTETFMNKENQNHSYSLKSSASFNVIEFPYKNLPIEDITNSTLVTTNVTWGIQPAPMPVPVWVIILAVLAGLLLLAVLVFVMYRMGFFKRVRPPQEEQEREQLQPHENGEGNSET
T1 sequence (P05106 27-788, chain 2 of 2): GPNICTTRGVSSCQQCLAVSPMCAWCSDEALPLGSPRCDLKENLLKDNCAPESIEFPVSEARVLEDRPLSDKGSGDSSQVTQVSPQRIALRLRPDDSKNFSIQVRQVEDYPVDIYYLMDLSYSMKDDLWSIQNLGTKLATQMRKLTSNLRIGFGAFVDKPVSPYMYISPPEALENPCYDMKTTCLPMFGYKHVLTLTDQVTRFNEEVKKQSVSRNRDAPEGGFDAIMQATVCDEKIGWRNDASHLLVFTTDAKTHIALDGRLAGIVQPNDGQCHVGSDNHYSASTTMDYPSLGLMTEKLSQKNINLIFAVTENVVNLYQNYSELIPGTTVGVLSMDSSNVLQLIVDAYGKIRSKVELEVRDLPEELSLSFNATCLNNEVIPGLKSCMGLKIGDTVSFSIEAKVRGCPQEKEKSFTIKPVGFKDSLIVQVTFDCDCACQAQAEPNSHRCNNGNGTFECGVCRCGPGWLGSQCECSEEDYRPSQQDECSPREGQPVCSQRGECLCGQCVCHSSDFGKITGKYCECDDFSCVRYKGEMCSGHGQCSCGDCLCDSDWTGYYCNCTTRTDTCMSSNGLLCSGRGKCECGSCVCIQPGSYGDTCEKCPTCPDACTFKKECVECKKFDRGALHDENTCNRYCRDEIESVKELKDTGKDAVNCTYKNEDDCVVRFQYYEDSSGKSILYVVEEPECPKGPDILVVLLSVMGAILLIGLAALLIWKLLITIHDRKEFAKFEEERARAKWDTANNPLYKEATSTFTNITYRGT

B1: phycoerythrin-conjugated anti-integrin αvβ3 monoclonal antibody (clone LM609) (antibody, V domains shown)
VH: EVQLEESGGGLVKPGGSLKLSCAASGFAFSSYDMSWVRQIPEKRLEWVAKVSSGGGSTYYLDTVQGRFTISRDNAKNTLYLQMSSLNSEDTAMYYCARHNYGSFAYWGQGTLVTVSA
VL: ELVMTQTPATLSVTPGDSVSLSCRASQSISNHLHWYQQKSHESPRLLIKYASQSISGIPSRFSGSGSGTDFTLSINSVETEDFGMYFCQQSNSWPHTFGGGTKLEIK
notes: Bought reagent (Millipore Sigma), conjugated to phycoerythrin; also called PE-conjugated anti-integrin αvβ3 antibody (LM609; Millipore Sigma)
MFI ratio (MFI/MFI isotype control) [1]: 8
MFI ratio (MFI/MFI isotype control) [2]: 4
MFI ratio (MFI/MFI isotype control) [3]: 16
MFI ratio (MFI/MFI isotype control) [4]: 17
MFI ratio (MFI/MFI isotype control) [5]: 5
MFI ratio (MFI/MFI isotype control) [6]: 6
MFI ratio (MFI/MFI isotype control) [7]: 5
MFI ratio (MFI/MFI isotype control) [8]: 2
